Consider one molecule from patent publication US6034062A, “Bone morphogenetic protein (BMP)-9 compositions and their uses” (Genetics Institute, Inc., priority 1997, dated 2000).

In one experiment the test system is NCTC1469. The experiment can be described thus: 125I-BMP-9 binding to NCTC1469 liver cell line. Particulars: iodinated CHO-derived BMP-9. The procedure:
(§1) BMP-9 responsiveness in parenchymal liver cells is tested by screening four liver cell lines for their ability to bind iodinated, CHO-derived BMP-9. […] Specific binding of BMP-9 to HepG2 cells is carried out by incubating HepG2 cells grown to confluence in Dulbecco's Modified Eagle's Medium (DME) containing 10% heat-inactivated fetal calf serum (FCS) on gelatinized 6 well plates with 2 ng/ml ^125 I-BMP-9 and increasing concentrations of unlabelled BMP-9 in binding buffer (136.9 mM NaCl, 5.37 mM KCl, 1.26 mM CaCl2, 0.64 mM MgSO4, 0.34 mM Na2 HPO4, 0.44 mM KH2 PO4, 0.49 mM MgCl2, 25 mM HEPES and 0.5% BSA, pH 7.4) for 20 hours at 4° C. to achieve binding equilibrium. This incubation follows a one hour preincubation at 37° C. in binding buffer alone. For crosslinking experiments, the cells were incubated with 500 μM disuccinimidyl suberate for 20 minutes at […] following binding. Cell extracts were analyzed on SDS-PAGE. […] The curvilinear nature of the Scatchard plot indicates negative cooperativity among BMP-9 receptors or that HepG2 cells express at least two populations of BMP-9 receptors with different affinities. Crosslinking analysis on HepG2 cells with ^125 I-BMP-9 yields two binding proteins of apparent molecular weights of 54 and 80 kD. […]

The test system of the next experiment is HepG2 cells. The experiment can be described thus: HepG2 cell proliferation (3H-thymidine incorporation, cell counting). It counts as cell-based. The method, then: As a first indication of BMP-9 effects on confluent, serum starved HepG2 cells, cell proliferation is examined as determined by ^3 H-thymidine incorporation and cell counting. HepG2 cells are plated at […] in 96 well plates and cultured for 48 hours in DME/0.1% FCS to synchronize the cell cycle are treated for 24 hours with or without BMP-9 in the presence of 0.1% FCS. In ^3 H-thymidine incorporation assays, ^3 H-thymidine was included during the last 4 hours of treatment and cellular DNA was collected with a 96 well plate cell harvester. Proliferation was assayed by quantifying ethanol-precipitable ^3 H-thymidine incorporation by liquid scintillation counting. For cell counting assays, cells were trypsinized and counted with a hemacytometer. Primary rat hepatocytes isolated from male Fischer 344 rats (Charles River, Wilmington, Mass.) by collagenase digestion as previously described [Michalopoulos et al., Cancer Res. 42:4673-4682 (1982)] are plated on collagen-coated plates at subconfluence (5,000-10,000 cells/cm^2) in serum-free media as described in Michalopoulos et al., Cancer Res. 42:4673-4682 (1982) and treated with or without rhBMP-9 for 36 hours. ^3 H-thymidine was included throughout the treatment period and incorporated ^3 H-thymidine was quantified as described by Anscher et al., New England J. Med. 328:1592-1598 (1993). BMP-9 stimulates ^3 H-thymidine incorporation in HepG2 cells approximately five fold.

Experiment [1] relates to Articular cartilage explants from calf carpal joints. The experiment can be described thus: Articular cartilage assay (proteoglycan synthesis, sulfate incorporation). The experiment is classed as cell-based. The method, then:
The effect of BMP-9 on articular cartilage proteoglycan and DNA synthesis is assayed to determine if BMP-9 is involved in the regulation of metabolism of differentiated articular cartilage.
Articular cartilage explants from calf carpal joints are maintained in DMEM with 50 μg/ml ascorbate, 4 mM glutamine and antibiotics for 3 days. Cytokines (rhBMP-2, rhBMP-4, rhBMP-6 and rhBMP-9, IGF-1, bFGF (1-1000 ng/ml), and TGFβ (1-100 ng/ml)) are added to the medium and culture is continued for 3 more days. Medium is changed daily. Twenty-four hours prior to harvest, explants are pulsed with 50 μCi/ml ^35 SO4 or 25 μCi/ml ^3 H-thymidine. Explants are solubilized and separation of free isotope is performed by gel chromatography. Total DNA of each explant is measured by a spectrophotometric assay.

Another experiment relates to Chang. The experiment can be described thus: 125I-BMP-9 binding to Chang liver cell line. To be noted: iodinated CHO-derived BMP-9. The method, then: as §1
Experiment [2] can be described thus: Ectopic bone formation in vivo (implant). Further details: species or system rat. To be noted: 25 μg/implant, after 10 days of implantation. The source says:
A modified version of the rat bone formation assay described in Sampath and Reddi, Proc. Natl. Acad. Sci. USA 80:6591-6595 (1983) is used to evaluate bone and/or cartilage activity of the BMP proteins. This modified assay is herein called the Rosen-modified Sampath-Reddi assay. The ethanol precipitation step of the Sampath-Reddi procedure is replaced by dialyzing (if the composition is a solution) or diafiltering (if the composition is a suspension) the fraction to be assayed against water. The solution or suspension is then redissolved in 0.1% TFA, and the resulting solution added to 20mg of rat matrix. A mock rat matrix sample not treated with the protein serves as a control. This material is frozen and lyophilized and the resulting powder enclosed in #5 gelatin capsules. The capsules are implanted subcutaneously in the abdominal thoracic area of 21-49 day old male Long Evans rats. The implants are removed after 7-14 days. […]
The other half of each implant is fixed and processed for histological analysis. […] glycolmethacrylate sections are stained with Von Kossa and acid fuschin to score the amount of induced bone and cartilage formation present in each implant. […] In a modified scoring method, three non-adjacent sections are evaluated from each implant and averaged. […]

B1: BMP-9: recombinant human bone morphogenetic protein-9, mature amino acids #1-#110 of SEQ ID NO:9, expressed in CHO cells (protein)
chain: TRECSRSCPRTAPQRQVRAVTRRTRMAHVAAGSTLARRKRSAGAGSHCQKTSLRVNFEDIGWDSWIIAPKEYEAYECKGGCFFPLADDVTPTKHAIVQTLVHLKFPTKVG
modifications: 125I-iodinated as tracer; unlabelled BMP-9 used as the displacing ligand
With B1, the figures for the “specific binding of 125I-BMP-9” value in the experiment on NCTC1469 and with Chang were “highest degree of binding” and “to some extent”, respectively. For the same molecule, in the experiment with HepG2 cells (HepG2 cells, estimated), the “ED50, stimulation of 3H-thymidine incorporation” value is 0.01 µg/mL. The cell counting result in the experiment on HepG2 cells (HepG2 cells, treated 24 hours) is “stimulatory effect”. Further, in the experiment with HepG2 cells (confluent, serum starved HepG2 cells, treated 24 hours, 0.1% FCS), the “stimulation of 3H-thymidine incorporation” value was “approximately five”. In addition, the proteoglycan synthesis result in experiment [1] (100 ng/ml, calf articular cartilage explants) is given as “significantly more active in stimulating proteoglycan synthesis”. Also, in experiment [1] (dose of 10 ng/ml, p<0.05, calf articular cartilage explants), the “proteoglycan synthesis versus control” value is “stimulates proteoglycan synthesis above control levels”. In experiment [2], the ectopic bone formation entry was “inducing cartilage and bone tissue”.
